# From article PMC6640692, “Canine CD117-Specific Antibodies with Diverse Binding Properties Isolated from a Phage Display Library Using Cell-Based Biopanning” (Antibodies, 2019)
# B1: recombinant canine stem cell factor (SCF)-His (ligand, UniProt Q06220 26-191, looked up)
# chain: KGICGKRVTDDVKDVTKLVANLPKDYKIALKYVPGMDVLPSHCWISVMVEQLSVSLTDLLDKFSNISEGLSNYSIIDKLVKIVDDLVECTEGYSFENVKKAPKSPELRLFTPEEFFRIFNRSIDAFKDLETVASKSSECVVSSTLSPDKDSRVSVTKPFMLPPVAA
# notes: signal peptide in the construct; canine SCF, secretion signal and the soluble part of the extracellular domain, NP_001012753.1 residues 1 to 191; also called canine SCF; SCF-His-tag; source: CHO-S cells, transient transfection, purified from supernatant (HisTrap excel IMAC)
# Molecular target: T1, recombinant canine CD117-ECD-human-Fc fused protein (canine, UniProt O97799 28-527)
# T1 construct: canine CD117 (c-Kit) extracellular domain, amplified by PCR from a GeneArt-synthesized CD117 template (NP_001003181); The forward primer begins at the ATG start codon (MRGARG), so the secretion signal appears to be in the construct; Dimer through disulfide linkage in the hFc domain (non-reducing SDS-PAGE); also called CD117-hFc; ECD-CD117-hFc; source: CHO-S cells, transient transfection, purified …
# Assay: ELISA; competitive ELISA: plate coated with 1 ug/mL canine CD117-hFc; 50 ng/mL canine SCF-His pre-mixed with serially diluted mAbs (from 40 ug/mL) in 2% MPBS, RT 1 h; bound SCF detected with anti-His HRP
# Details: both partners purified
# T1 sequence (O97799 28-527): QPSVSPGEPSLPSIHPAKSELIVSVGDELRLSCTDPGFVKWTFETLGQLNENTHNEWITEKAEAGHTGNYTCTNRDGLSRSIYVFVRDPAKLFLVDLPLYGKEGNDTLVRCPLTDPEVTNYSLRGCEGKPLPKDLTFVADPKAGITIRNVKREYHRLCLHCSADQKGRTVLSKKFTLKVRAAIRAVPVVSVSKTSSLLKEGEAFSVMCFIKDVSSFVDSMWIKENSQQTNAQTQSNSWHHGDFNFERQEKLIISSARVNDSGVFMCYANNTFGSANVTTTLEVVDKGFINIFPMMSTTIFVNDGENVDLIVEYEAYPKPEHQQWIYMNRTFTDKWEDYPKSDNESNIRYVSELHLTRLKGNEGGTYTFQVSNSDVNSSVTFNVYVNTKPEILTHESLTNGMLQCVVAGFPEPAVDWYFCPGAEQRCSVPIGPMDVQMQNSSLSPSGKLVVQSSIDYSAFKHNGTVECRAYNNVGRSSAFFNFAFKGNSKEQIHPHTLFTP
binder,measurement,value
B1,binding result,binds
